Laboratory results reported in the supplement of paper PMC5998384.

Columns and labels:
HeLa Kyoto [1] = assay: thermal stability score vs G1/S (z-score of summed log2 fold changes over temperatures); higher = more thermally stable than in G1/S
HeLa Kyoto [2] = assay: solubility change mitosis vs G1/S (difference of NP-40 vs SDS log2 ratios) (log2 ratio difference); higher = more soluble in mitosis
HeLa Kyoto [3] = assay: solubility in G1/S (NP-40 vs SDS abundance) (log2 ratio); higher = more soluble; conditions: cell cycle stage: G1/S
[4] = cell cycle stage: early G1 (4.5 h after nocodazole release)
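Wherever solubility change mitosis vs G1/S (difference of NP-40 vs SDS log2 ratios) is given: synchronized HeLa Kyoto cells (double thymidine block for G1/S, nocodazole release for mitosis), protein amounts in NP-40 versus SDS lysates quantified by mass spectrometry, three biological replicates.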
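Wherever solubility in G1/S (NP-40 vs SDS abundance) is given: HeLa Kyoto cells arrested at G1/S by double thymidine block, proteins quantified by TMT10plex mass spectrometry in mild NP-40 versus SDS extracts, three biological replicates.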
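Wherever thermal stability score vs G1/S (z-score of summed log2 fold changes over temperatures) is given: synchronized HeLa Kyoto cells, proteins quantified by TMT10plex mass spectrometry, three biological replicates, mitosis taken 0.5 h after nocodazole release, G1/S directly after double thymidine block.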

| Substance | thermal stability score (HeLa Kyoto [1]; [4]) | thermal stability score (HeLa Kyoto [1]; cell cycle stage: mitosis) | solubility change mitosis (log2) (HeLa Kyoto [2]) | solubility in G1/S (log2) (HeLa Kyoto [3]) |
| --- | --- | --- | --- | --- |
| MKKSIGILSPGVALGMAGSAMSSKFFLVALAIFFSFAQVVIEANSWWSLGMNNPVQMSEVYIIGAQPLCSQLAGLSQGQKKLCHLYQDHMQYIGEGAKTGIKECQYQFRHRRWNCSTVDNTSVFGRVMQIGSRETAFTYAVSAAGVVNAMSRACREGELSTCGCSRAARPKDLPRDWLWGGCGDNIDYGYRFAKEFVDARERERIHAKGSYESARILMNLHNNEAGRRTVYNLADVACKCHGVSGSCSLKTCWLQLADFRKVGDALKEKYDSAAAMRLNSRGKLVQVNSRFNSPTTQDLVYIDPSPDYCVRNESTGSLGTQGRLCNKTSEGMDGCELMCCGRGYDQFKTVQTERCHCKFHWCCYVKCKKCTEIVDQFVCK [WNT5A] | -0.194 | 0.339 | -0.0777 | -0.0436 |
| CELSR1 | -1.99 | -1.59 | -0.0398 | -0.413 |
| KIAA0430 | -0.446 | -0.799 | 0.0372 | -0.0573 |
| MASADKNGGSVSSVSSSRLQSRKPPNLSITIPPPEKETQAPGEQDSMLPEGFQNRRLKKSQPRTWAAHTTACPPSFLPKRKNPAYLKSVSLQEPRSRWQESSEKRPGFRRQASLSQSIRKGAAQWFGVSGDWEGQRQQWQRRSLHHCSMRYGRLKASCQRDLELPSQEAPSFQGTESPKPCKMPKIVDPLARGRAFRHPEEMDRPHAPHPPLTPGVLSLTSFTSVRSGYSHLPRRKRMSVAHMSLQAAAALLKGRSVLDATGQRCRVVKRSFAFPSFLEEDVVDGADTFDSSFFSKEEMSSMPDDVFESPPLSASYFRGIPHSASPVSPDGVQIPLKEYGRAPVPGPRRGKRIASKVKHFAFDRKKRHYGLGVVGNWLNRSYRRSISSTVQRQLESFDSHRPYFTYWLTFVHVIITLLVICTYGIAPVGFAQHVTTQLVLRNKGVYESVKYIQQENFWVGPSSIDLIHLGAKFSPCIRKDGQIEQLVLRERDLERDSGCCVQNDHSGCIQTQRKDCSETLATFVKWQDDTGPPMDKSDLGQKRTSGAVCHQDPRTCEEPASSGAHIWPDDITKWPICTEQARSNHTGFLHMDCEIKGRPCCIGTKGSCEITTREYCEFMHGYFHEEATLCSQVHCLDKVCGLLPFLNPEVPDQFYRLWLSLFLHAGVVHCLVSVVFQMTILRDLEKLAGWHRIAIIFILSGITGNLASAIFLPYRAEVGPAGSQFGLLACLFVELFQSWPLLERPWKAFLNLSAIVLFLFICGLLPWIDNIAHIFGFLSGLLLAFAFLPYITFGTSDKYRKRALILVSLLAFAGLFAALVLWLYIYPINWPWIEHLTCFPFTSRFCEKYELDQVLH [RHBDF2] | -2.24 | -2.01 | 0.063 | -0.177 |
| MRGKTFRFEMQRDLVSFPLSPAVRVKLVSAGFQTAEELLEVKPSELSKEVGISKAEALETLQIIRRECLTNKPRYAGTSESHKKCTALELLEQEHTQGFIITFCSALDDILGGGVPLMKTTEICGAPGVGKTQLCMQLAVDVQIPECFGGVAGEAVFIDTEGSFMVDRVVDLATACIQHLQLIAEKHKGEEHRKALEDFTLDNILSHIYYFRCRDYTELLAQVYLLPDFLSEHSKVRLVIVDGIAFPFRHDLDDLSLRTRLLNGLAQQMISLANNHRLAVILTNQMTTKIDRNQALLVPALGESWGHAATIRLIFHWDRKQRLATLYKSPSQKECTVLFQIKPQGFRDTVVTSACSLQTEGSLSTRKRSRDPEEEL [RAD51C] | -0.288 | -0.541 | 0.0331 | 0.00866 |
| MSKISEAVKRARAAFSSGRTRPLQFRIQQLEALQRLIQEQEQELVGALAADLHKNEWNAYYEEVVYVLEEIEYMIQKLPEWAADEPVEKTPQTQQDELYIHSEPLGVVLVIGTWNYPFNLTIQPMVGAIAAGNSVVLKPSELSENMASLLATIIPQYLDKDLYPVINGGVPETTELLKERFDHILYTGSTGVGKIIMTAAAKHLTPVTLELGGKSPCYVDKNCDLDVACRRIAWGKFMNSGQTCVAPDYILCDPSIQNQIVEKLKKSLKEFYGEDAKKSRDYGRIISARHFQRVMGLIEGQKVAYGGTGDAATRYIAPTILTDVDPQSPVMQEEIFGPVLPIVCVRSLEEAIQFINQREKPLALYMFSSNDKVIKKMIAETSSGGVAANDVIVHITLHSLPFGGVGNSGMGSYHGKKSFETFSHRRSCLVRPLMNDEGLKVRYPPSPAKMTQH [ALDH3A1] | 0.258 | -0.475 | -0.153 | 0.316 |
| MAKQLQARRLDGIDYNPWVEFVKLASEHDVVNLGQGFPDFPPPDFAVEAFQHAVSGDFMLNQYTKTFGYPPLTKILASFFGELLGQEIDPLRNVLVTVGGYGALFTAFQALVDEGDEVIIIEPFFDCYEPMTMMAGGRPVFVSLKPGPIQNGELGSSSNWQLDPMELAGKFTSRTKALVLNTPNNPLGKVFSREELELVASLCQQHDVVCITDEVYQWMVYDGHQHISIASLPGMWERTLTIGSAGKTFSATGWKVGWVLGPDHIMKHLRTVHQNSVFHCPTQSQAAVAESFEREQLLFRQPSSYFVQFPQAMQRCRDHMIRSLQSVGLKPIIPQGSYFLITDISDFKRKMPDLPGAVDEPYDRRFVKWMIKNKGLVAIPVSIFYSVPHQKHFDHYIRFCFVKDEATLQAMDEKLRKWKVEL [CCBL1] | 0.0443 | -0.361 | -0.211 | 0.0856 |
| MSGPLEGADGGGDPRPGESFCPGGVPSPGPPQHRPCPGPSLADDTDANSNGSSGNESNGHESRGASQRSSHSSSSGNGKDSALLETTESSKSTNSQSPSPPSSSIAYSLLSASSEQDNPSTSGCSSEQSARARTQKELMTALRELKLRLPPERRGKGRSGTLATLQYALACVKQVQANQEYYQQWSLEEGEPCSMDMSTYTLEELEHITSEYTLQNQDTFSVAVSFLTGRIVYISEQAAVLLRCKRDVFRGTRFSELLAPQDVGVFYGSTAPSRLPTWGTGASAGSGLRDFTQEKSVFCRIRGGPDRDPGPRYQPFRLTPYVTKIRVSDGAPAQPCCLLIAERIHSGYEAPRIPPDKRIFTTRHTPSCLFQDVDERAAPLLGYLPQDLLGAPVLLFLHPEDRPLMLAIHKKILQLAGQPFDHSPIRFCARNGEYVTMDTSWAGFVHPWSRKVAFVLGRHKVRTAPLNEDVFTPPAPSPAPSLDTDIQELSEQIHRLLLQPVHSPSPTGLCGVGAVTSPGPLHSPGSSSDSNGGDAEGPGPPAPVTFQQICKDVHLVKHQGQQLFIESRARPQSRPRLPATGTFKAKALPCQSPDPELEAGSAPVQAPLALVPEEAERKEASSCSYQQINCLDSILRYLESCNLPSTTKRKCASSSSYTTSSASDDDRQRTGPVSVGTKKDPPSAALSGEGATPRKEPVVGGTLSPLALANKAESVVSVTSQCSFSSTIVHVGDKKPPESDIIMMEDLPGLAPGPAPSPAPSPTVAPDPAPDAYRPVGLTKAVLSLHTQKEEQAFLSRFRDLGRLRGLDSSSTAPSALGERGCHHGPAPPSRRHHCRSKAKRSRHHQNPRAEAPCYVSHPSPVPPSTPWPTPPATTPFPAVVQPYPLPVFSPRGGPQPLPPAPTSVPPAAFPAPLVTPMVALVLPNYLFPTPSSYPYGALQTPAEGPPTPASHSPSPSLPALAPSPPHRPDSPLFNSRCSSPLQLNLLQLEELPRAEGAAVAGGPGSSAGPPPPSAEAAEPEARLAEVTESSNQDALSGSSDLLELLLQEDSRSGTGSAASGSLGSGLGSGSGSGSHEGGSTSASITRSSQSSHTSKYFGSIDSSEAEAGAARGGAEPGDQVIKYVLQDPIWLLMANADQRVMMTYQVPSRDMTSVLKQDRERLRAMQKQQPRFSEDQRRELGAVHSWVRKGQLPRALDVMACVDCGSSTQDPGHPDDPLFSELDGLGLEPMEEGGGEQGSSGGGSGEGEGCEEAQGGAKASSSQDLAMEEEEEGRSSSSPALPTAGNCTS [PER1] | 0.55 | 0.377 | -0.183 | 0.0364 |
| MAEDWLDCPALGPGWKRREVFRKSGATCGRSDTYYQSPTGDRIRSKVELTRYLGPACDLTLFDFKQGILCYPAPKAHPVAVASKKRKKPSRPAKTRKRQVGPQSGEVRKEAPRDETKADTDTAPASFPAPGCCENCGISFSGDGTQRQRLKTLCKDCRAQRIAFNREQRMFKRVGCGECAACQVTEDCGACSTCLLQLPHDVASGLFCKCERRRCLRIVERSRGCGVCRGCQTQEDCGHCPICLRPPRPGLRRQWKCVQRRCLRGKHARRKGGCDSKMAARRRPGAQPLPPPPPSQSPEPTEPHPRALAPSPPAEFIYYCVDEDELQPYTNRRQNRKCGACAACLRRMDCGRCDFCCDKPKFGGSNQKRQKCRWRQCLQFAMKRLLPSVWSESEDGAGSPPPYRRRKRPSSARRHHLGPTLKPTLATRTAQPDHTQAPTKQEAGGGFVLPPPGTDLVFLREGASSPVQVPGPVAASTEALLQEAQCSGLSWVVALPQVKQEKADTQDEWTPGTAVLTSPVLVPGCPSKAVDPGLPSVKQEPPDPEEDKEENKDDSASKLAPEEEAGGAGTPVITEIFSLGGTRFRDTAVWLPRSKDLKKPGARKQ [MBD1] | -0.407 | -0.0664 | 0.37 | -0.475 |
| MERRSRRKSRRNGRSTAGKAAATQPAKSPGAQLWLFPSAAGLHRALLRRVEVTRQLCCSPGRLAVLERGGAGVQVHQLLAGSGGARTPKCIKLGKNMKIHSVDQGAEHMLILSSDGKPFEYDNYSMKHLRFESILQEKKIIQITCGDYHSLALSKGGELFAWGQNLHGQLGVGRKFPSTTTPQIVEHLAGVPLAQISAGEAHSMALSMSGNIYSWGKNECGQLGLGHTESKDDPSLIEGLDNQKVEFVACGGSHSALLTQDGLLFTFGAGKHGQLGHNSTQNELRPCLVAELVGYRVTQIACGRWHTLAYVSDLGKVFSFGSGKDGQLGNGGTRDQLMPLPVKVSSSEELKLESHTSEKELIMIAGGNQSILLWIKKENSYVNLKRTIPTLNEGTVKRWIADVETKRWQSTKREIQEIFSSPACLTGSFLRKRRTTEMMPVYLDLNKARNIFKELTQKDWITNMITTCLKDNLLKRLPFHSPPQEALEIFFLLPECPMMHISNNWESLVVPFAKVVCKMSDQSSLVLEEYWATLQESTFSKLVQMFKTAVICQLDYWDESAEENGNVQALLEMLKKLHRVNQVKCQLPESIFQVDELLHRLNFFVEVCRRYLWKMTVDASENVQCCVIFSHFPFIFNNLSKIKLLHTDTLLKIESKKHKAYLRSAAIEEERESEFALRPTFDLTVRRNHLIEDVLNQLSQFENEDLRKELWVSFSGEIGYDLGGVKKEFFYCLFAEMIQPEYGMFMYPEGASCMWFPVKPKFEKKRYFFFGVLCGLSLFNCNVANLPFPLALFKKLLDQMPSLEDLKELSPDLGKNLQTLLDDEGDNFEEVFYIHFNVHWDRNDTNLIPNGSSITVNQTNKRDYVSKYINYIFNDSVKAVYEEFRRGFYKMCDEDIIKLFHPEELKDVIVGNTDYDWKTFEKNARYEPGYNSSHPTIVMFWKAFHKLTLEEKKKFLVFLTGTDRLQMKDLNNMKITFCCPESWNERDPIRALTCFSVLFLPKYSTMETVEEALQEAINNNRGFG [HERC5] | -0.386 | -1.53 | 0.525 | -1.44 |
